B1: ATP1B2 (Na/K-ATPase β2 subunit): N96Q (protein)
parent chain: MVIQKEKKSCGQVVEEWKEFVWNPRTHQFMGRTGTSWAFILLFYLVFYGFLTAMFTLTMWVMLQTVSDHTPKYQDRLATPGLMIRPKTENLDVIVNVSDTESWDQHVQKLNKFLEPYNDSIQAQKNDVCRPGRYYEQPDNGVLNYPKRACQFNRTQLGNCSGIGDSTHYGYSTGQPCVFIKMNRVINFYAGANQSMNVTCAGKRDEDAENLGNFVMFPANGNIDLMYFPYYGKKFHVNYTQPLVAVKFLNVTPNVEVNVECRINAANIATDDERDKFAGRVAFKLRINKT
B2: ATP1B2 (Na/K-ATPase β2 subunit): N153Q (protein)
parent chain: B1 parent chain
B3: ATP1B2 (Na/K-ATPase β2 subunit): N197Q (protein)
parent chain: B1 parent chain
B4: ATP1B2 (Na/K-ATPase β2 subunit): N193Q (protein)
parent chain: B1 parent chain
B5: ATP1B2 (Na/K-ATPase β2 subunit): N250Q (protein)
parent chain: B1 parent chain
B6: ATP1B2 (Na/K-ATPase β2 subunit): N159Q (protein)
parent chain: B1 parent chain
B7: ATP1B2 (Na/K-ATPase β2 subunit): N238Q (protein)
parent chain: B1 parent chain
B8: ATP1B2 (Na/K-ATPase β2 subunit): N118Q (protein)
parent chain: B1 parent chain

Assay: Western blot densitometry of ATP1B2 in HEK293
Conditions: glycan lost; control: normal ATP1B2

Protein	expression_or_secretion
B1	no change
B2	no change
B3	no change
B4	no change
B5	no change
B6	no change
B7	no change
B8	no change
